Experimental data as given in the Human Domainome abundance scans (Beltran et al. 2025).
± gives the uncertainty stated by the source.

B1: Kinesin-like protein KIF16B, residues 1213 to 1273; numbered along this chain, Q96L93 (parent)
chain: ETWTVFRRYSRFREMHKTLKLKYAELAALEFPPKKLFGNKDERVIAERRSHLEKYLRDFFS

Variants of: B1
Experiment: abundance fitness (aPCA) (normalised: wild type 0, dead -1); higher = more abundant; growth selection in yeast, the domain comes from the species named
Settings: Homo sapiens

Variant | abundance fitness
K35I | -0.521 ± 0.23
K35N | 0.034 ± 0.12
K35V | -0.34 ± 0.12
K35T | -0.585 ± 0.41
K35M | -0.36 ± 0.13
K35D | -0.717 ± 0.35
K35Y | -0.073 ± 0.16
K35A | -0.204 ± 0.19
K35S | -0.108 ± 0.074
K35Q | -0.233 ± 0.4
K35G | -0.148 ± 0.062
K35E | -0.786 ± 0.26
F37I | -0.111 ± 0.14
F37A | -0.451 ± 0.12
F37E | -0.407 ± 0.056
F37Q | -0.476 ± 0.12
F37T | -0.566 ± 0.096
F37V | -0.202 ± 0.088
F37D | -0.2 ± 0.1
F37W | -0.734 ± 0.23
F37P | -0.573 ± 0.14
F37L | -0.271 ± 0.081
F37H | -0.597 ± 0.45
F37R | -0.35 ± 0.072

Variant | abundance fitness
F37K | -0.189 ± 0.094
F37S | -0.446 ± 0.061
F37G | -0.334 ± 0.076
F37C | -0.631 ± 0.3
L36P | -0.317 ± 0.15
L36G | -0.658 ± 0.099
L36D | -0.596 ± 0.3
L36A | -0.41 ± 0.11
L36E | -0.592 ± 0.1
L36K | -0.463 ± 0.14
L36H | -0.826 ± 0.24
L36R | -0.634 ± 0.1
L36M | -0.586 ± 0.23
L36S | -0.67 ± 0.15
L36W | 0.27 ± 0.088
L36Q | -0.976 ± 0.37
L36Y | -0.525 ± 0.21
L36T | -0.453 ± 0.13
L36V | -0.435 ± 0.085
L36F | -0.02 ± 0.31
K34A | 0.368 ± 0.24
K34V | 0.06 ± 0.094
P32A | 0.075 ± 0.055
P32T | 0.069 ± 0.056

Variant | abundance fitness
P32K | 0.275 ± 0.065
P32D | -0.082 ± 0.11
P32R | 0.139 ± 0.049
P32Q | -0.243 ± 0.081
P32Y | -0.691 ± 0.38
P32W | 0.353 ± 0.065
P32N | 0.209 ± 0.088
P32F | 0.329 ± 0.093
P32L | 0.296 ± 0.056
P32H | 0.166 ± 0.47
P32C | 0.171 ± 0.075
P32E | -0.374 ± 0.086
P32S | 0.159 ± 0.085
P32M | 0.191 ± 0.046
N39M | -0.063 ± 0.063
N39I | 0.06 ± 0.13
N39K | 0.203 ± 0.11
N39A | 0.174 ± 0.16
N39Q | 0.054 ± 0.12
N39Y | -0.347 ± 0.078
N39S | -0.033 ± 0.07
N39V | -0.011 ± 0.077
N39G | 0.036 ± 0.065
N39R | 0.04 ± 0.041

Variant | abundance fitness
N39E | -0.397 ± 0.13
N39P | -0.102 ± 0.12
N39H | 0.05 ± 0.16
N39W | -0.108 ± 0.063
N39T | -0.291 ± 0.082
N39F | -0.246 ± 0.16
L29A | 0.172 ± 0.07
L29F | -0.188 ± 0.25
L29W | 0.223 ± 0.052
L29C | -0.228 ± 0.14
L29K | -0.226 ± 0.08
L29S | -0.513 ± 0.11
L29E | -0.883 ± 0.12
L29T | -0.132 ± 0.073
L29R | -0.192 ± 0.053
L29I | 0.427 ± 0.22
L29Y | -0.31 ± 0.32
L29H | -0.38 ± 0.41
L29V | -0.033 ± 0.063
L29M | 0.337 ± 0.063
P33S | 0.022 ± 0.067
P33Q | -0.429 ± 0.26
P33D | -1.07 ± 0.42
P33H | 0.107 ± 0.15

Variant | abundance fitness
P33E | -0.857 ± 0.24
P33V | 0.17 ± 0.039
P33L | 0.366 ± 0.049
P33Y | -0.378 ± 0.24
P33I | 0.24 ± 0.39
P33T | -0.02 ± 0.16
P33F | 0.495 ± 0.096
P33K | 0.035 ± 0.13
P33W | 0.322 ± 0.084
P33G | 0.279 ± 0.038
P33A | 0.047 ± 0.059
G38K | -0.346 ± 0.1
G38Q | -0.076 ± 0.073
G38D | -0.678 ± 0.14
G38N | -0.195 ± 0.16
G38P | -0.279 ± 0.1
G38C | -0.46 ± 0.16
G38Y | -0.8 ± 0.38
G38R | -0.145 ± 0.044
G38A | -0.202 ± 0.053
G38H | -0.151 ± 0.16
G38I | -0.347 ± 0.18
G38S | -0.234 ± 0.082
G38M | -0.492 ± 0.11

Variant | abundance fitness
G38E | -0.173 ± 0.088
G38W | -0.144 ± 0.061
G38L | -0.458 ± 0.064
G38F | -0.224 ± 0.13
G38T | -0.061 ± 0.072
F31Q | -0.716 ± 0.24
F31D | -0.946 ± 0.38
F31A | -0.573 ± 0.18
F31T | -0.949 ± 0.19
F31N | -0.703 ± 0.2
F31I | -0.64 ± 0.32
F31L | -0.397 ± 0.12
F31E | -0.46 ± 0.11
F31K | -0.752 ± 0.35
F31V | -0.545 ± 0.079
F31R | -0.692 ± 0.09
F31G | -0.862 ± 0.12
F31C | -0.644 ± 0.15
F31W | 0.194 ± 0.062
F31Y | -0.295 ± 0.35
F31S | -0.699 ± 0.15
E30N | 0.071 ± 0.096
E30Y | 0.322 ± 0.047
E30W | 0.313 ± 0.071

Variant | abundance fitness
E30K | -0.033 ± 0.084
E30V | 0.372 ± 0.042
E30G | 0.153 ± 0.046
E30M | 0.347 ± 0.072
E30I | 0.539 ± 0.079
E30L | 0.476 ± 0.039
E30D | 0.08 ± 0.068
E30A | 0.169 ± 0.052
E30T | 0.108 ± 0.093
E30S | 0.151 ± 0.065
E30Q | 0.036 ± 0.093
E30H | -0.212 ± 0.11
E30R | 0.018 ± 0.058
A28I | -0.311 ± 0.49
A28M | -0.433 ± 0.16
A28P | -0.424 ± 0.11
A28W | -0.177 ± 0.11
A28S | -0.129 ± 0.1
A28K | -0.094 ± 0.17
A28V | -0.912 ± 0.18
A28R | -0.036 ± 0.053
A28Y | -1.03 ± 0.39
A28T | 0.009 ± 0.08
